# From paper PMC2649420 (The Journal of biological chemistry, 2008)
# B1: C3a anaphylatoxin (domain or fragment)
# chain: not shown
# Molecular target: Sbi-III-IV (amino acids 150-266), domains III and IV of Sbi (S. aureus strain Mu50, UniProt Q99RL2 150-266)
# Assay: SPR
binder,measurement,value
B1,Kd,19.8 µM
